The record followed here is the supplement of paper PMC9170038.

The data set has as its system MS2 coat protein. Briefly: apparent KD of MS2 coat protein; designed switch direction (-1 OFF switch, 1 ON switch): -1; higher = weaker reporter binding. In a few lines:
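For each design, the apparent KD is the median over clusters of curves fitted to normalised cluster fluorescence. Clusters held RNA switches with common flanks, transcribed on Illumina chips by stalled E. coli RNA polymerase. These were titrated with SNAP-549-labelled MS2 coat protein, doubling from 0.7 or 1.5 nM to 3 µM, without input, with 200 uM small-molecule ligand, or with an oligonucleotide input.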

[1] abbreviates: input ligand: microRNA oligo, concentration not stated.
[2] abbreviates: Eterna round: R95, input ligand: microRNA oligo, concentration not stated.
The mark [3] stands for this setting: Eterna round: R95, input ligand: FMN 200 uM.
The mark [4] stands for this setting: Eterna round: R95, input ligand: none.

As to “CAUUAUUAUCGAGGAUAUCGUAUUGAGAUACUAUGAGAAGGCGGGAUAAACAUGAGGAUCACCCAUGUGAGCCGGAUGCUUGUG [Ex NG1 #36] (Eterna round: R96, puzzle: Exclusion NG 1)”, the “apparent KD of MS2 coat protein” value under setting [1] is 13.5 nM.

With “CAUUGUGUUGAGGAUAUGCGCCGGCUCGCUGGCGCAGAAGGCGGCACAUGAGGAUCACCCAUGUCAGUUCGCGA [salish99_ex6_r004_416] (Eterna round: R97, puzzle: Exclusion 6)”, the “apparent KD of MS2 coat protein” value by setting is: (input ligand: FMN 200 uM) 452 nM; (input ligand: none) 38 nM.

As to “CAUUGUUAUCGAGGAUAUCGUAUUGAGAUACUACGAGAAGGCGGACUAAACAUGAGGAUCACCCAUGUGAGACGGAUGCUUGGG [Ex NG1 #33] (Eterna round: R96, puzzle: Exclusion NG 1)”, the “apparent KD of MS2 coat protein” value was 59 nM (input ligand: FMN 200 uM), 21 nM under setting [1] and 34.3 nM (input ligand: none).

Consider “CAUUUCUGUCGUUGAUCCAACAUGAGGAUCACCCAUGUCUCUUUAGCUUUUUGCUCGUCUUAUCCUCCUUUGUUCAC [JR_STOV1_Sub099] (Eterna round: R97, puzzle: Sensor, turn-off variant 1)”, for which the “apparent KD of MS2 coat protein” value (input ligand: FMN 200 uM) came out at 499 nM and the “apparent KD of MS2 coat protein” value (input ligand: none) turned out to be 835 nM.

Consider “CAUUUGUGAGGAUAUCAGGUGUGCUAGCGUACUGGUACAUCUGAGAAGGCACAUGAGGAUCACCCAUGUUCCUC [Mat - Exclusion 4 - Mod of JL - D35] (puzzle: Exclusion 4)”, for which the “apparent KD of MS2 coat protein” value under setting [2] worked out at 44.1 nM.

As to “CAUUUGUGAGGAUAUCAGGUGUGCUAGCGUACUGGUACAUCUGAGAAGGCACAUGAGGAUCACCCAUGUUUCUU [Mat - Exclusion 4 - Mod of JL - D37] (puzzle: Exclusion 4)”, under setting [2], the “apparent KD of MS2 coat protein” value came out at 15.9 nM.

On to “CCAAUGUAAGGAUAUCGUGCAAGUUUCAAAAGAGGCUUGUGCGAGAAGGUACAUGAGGAUCACCCAUGUAGGUU [Omei Ex4 B2] (Eterna round: R97, puzzle: Exclusion 4)”, for which the “apparent KD of MS2 coat protein” value was 340 nM (input ligand: FMN 200 uM) and 78.4 nM (input ligand: none).

In the case of “CCACCUCACGUCAGGAUAUCCAUCUCGAGUGAGGAGGAGAAGGGACAUGAGGAUCACCCAUGUAUAGAAAGAAA [Veaonce] (Eterna round: R97, puzzle: Brourd's mod of Exclusion 4)”, the “apparent KD of MS2 coat protein” value runs as follows: (input ligand: FMN 200 uM) 35.1 nM; (input ligand: none) 22.1 nM.

For the sequence “CCACGACAUGAGGAUCACCCAUGUGAGGAUAUGGCCUGAAAAGCGUGAGCAGAAUCAAUCAGAAGGCGCGUGGG [salish99_ex1_r4_060] (Eterna round: R97, puzzle: Exclusion 1)”, the “apparent KD of MS2 coat protein” value runs as follows: (input ligand: FMN 200 uM) 73.2 nM; (input ligand: none) 45.7 nM.

Regarding “CCACUGUCAGGAUAUCGUGCAUAACGUUAACAAUUUAUGUGCGAGAAGGGACAUGAGGAUCACCCAUGUAAACG [Omei Ex4 A28PK4] (Eterna round: R97, puzzle: Exclusion 4)”, the “apparent KD of MS2 coat protein” value was determined as 233 nM (input ligand: FMN 200 uM) and 166 nM (input ligand: none).

Take “CCAGUGUGAGGAUAUACAUGGAUAGUUUUAUAUAGUAUGUUACAUGAGGAUCACCCAUGUAGAAGGUAUAUCGG [15.1, 13.8 kcal, A 31%] (Eterna round: R97, puzzle: Exclusion 2)”: the “apparent KD of MS2 coat protein” value is, setting by setting: (input ligand: FMN 200 uM) 22.5 nM; (input ligand: none) 28.7 nM.

For “CCAUAUAACUGAGGAUAUGAUCACCACUAACAUUCAGAAGGCAGACAUGAGGAUCACCCAUGUGAUUUCUCAAUAUUAUACAUC [Prohibition 76 - Jieux - Exclusion NG 1] (Eterna round: R96, puzzle: Exclusion NG 1)”, the “apparent KD of MS2 coat protein” value under setting [1] was 375 nM.

As to “CCAUCACAUGAGGAUCACCCAUGUUAGGAUAUCGUGCUGAUACCAUGUAUUGAAGUAGCGAGAAGGAGCGUUGG [Eternabot (L1) Solution 53] (Eterna round: R97, puzzle: Exclusion 1)”, the “apparent KD of MS2 coat protein” value (input ligand: FMN 200 uM) was determined as 83.6 nM and the “apparent KD of MS2 coat protein” value (input ligand: none) was found to be 48 nM.

Regarding “CCAUCGAGUGUGAGGAUAUGCUGUUCCUUGGAGCAGCAGAAGGCACAUGAGGAUCACCCAUGUGGAUACGGUGG [Mat - Exclusion 4 - JL Mod - D80] (puzzle: Brourd's mod of Exclusion 4)”, the “apparent KD of MS2 coat protein” value under setting [2] was 33.4 nM.

“CCAUCGUGUGUGAGGAUAUGCUGGUCCUUGGAUCAGCAGAAGGCACAUGAGGAUCACCCAUGUGAAUACGAUGG [Mat - Exclusion 4 - JL Mod - D87] (puzzle: Brourd's mod of Exclusion 4)”: the “apparent KD of MS2 coat protein” value under setting [2] was 14.9 nM.

Regarding “CCAUGUAGAGGAUAUCUUAAGCUAGACAUGAGGAUCACCCAUGUGACUAUUCCUAUGAGCGGAGAAGGCUGAACCA [Eternabot (L2) Solution 64] (Eterna round: R97, puzzle: Exclusion 5)”, the “apparent KD of MS2 coat protein” value came out at 29.7 nM (input ligand: FMN 200 uM) and 29.6 nM (input ligand: none).

For “CCCACAAGCUUUUUGCUCGACAUGAGGAUCACCCAUGUAAAAUGGGUUAUAUAUAUAUGAAACAUAUAUAUAUACCU [-21.6, -47.5 kcal, A 35%] (Eterna round: R97, puzzle: Sensor, turn-off variant 1)”, the “apparent KD of MS2 coat protein” value runs as follows: (input ligand: FMN 200 uM) 43.9 nM; (input ligand: none) 47.6 nM.

As to “CCCAGAUAGGAAGGAUAUUGUACAUGAGGAUCACCCAUGUAAUAAAUGAGGAUCACGGAUGUAGACAAGAAGGUCCGGAUAAGC [Ostracism 6 - Jieux - Exclusion NG 2] (Eterna round: R96, puzzle: Exclusion NG 2)”, the “apparent KD of MS2 coat protein” value runs as follows: (input ligand: FMN 200 uM) 57.5 nM; under setting [1], 29.3 nM; (input ligand: none) 39.5 nM.

Regarding “CCCAGGUCAUCUCCCGGGAACAACAUGAGGAUCACCCAUGUCUAGGAUAUCCACCAGUCAAUAAAGGAGAAGGAGACGGUGGUU [Edatarte] (Eterna round: R96, puzzle: Exclusion NG 3)”, the “apparent KD of MS2 coat protein” value under setting [1] is 20.2 nM.

“CCCAGUUACGGAGGAUAUUGUACAUGAGGAUCACCCAUGUAAUAAAUGAGGAUUUCGGGUGUCUACAAGAAGGCCGGGAUAGGC [Ostracism 18 - Jieux - Exclusion NG 2] (Eterna round: R96, puzzle: Exclusion NG 2)”: the “apparent KD of MS2 coat protein” value by setting is: (input ligand: FMN 200 uM) 262 nM; under setting [1], 85.3 nM; (input ligand: none) 66 nM.

Turning to “CCCAGUUAGGAAGGAUAUUGUACAUGAGGAUCACCCAUGUAAUAAAUGAGGAUCACGGAUGUAGACAAGAAGGUCCGGAUAGGC [Ostracism 8 - Jieux - Exclusion NG 2] (Eterna round: R96, puzzle: Exclusion NG 2)”, the “apparent KD of MS2 coat protein” value (input ligand: FMN 200 uM) is 104 nM, the “apparent KD of MS2 coat protein” value under setting [1] stood at 41.5 nM and the “apparent KD of MS2 coat protein” value (input ligand: none) came out at 55.5 nM.

As for “CCCAUGUCAGGAUAUUAAUUGAGCAGGAAGCCCUGUCCACUUGAGAAGGGACAUGAGGAUCACCCAUGUAAAAC [Radiaena] (Eterna round: R97, puzzle: Exclusion 4)”, the “apparent KD of MS2 coat protein” value runs as follows: (input ligand: FMN 200 uM) 138 nM; (input ligand: none) 417 nM.

With “CCCGCACGAGUUAGGAUAUCAUUUGUCGAGAUAGGUGAGAAGGAACUUGAGGAUCACCCAAGUGUCCCGGGAAA [Maquso] (Eterna round: R97, puzzle: Brourd's mod of Exclusion 4)”, the “apparent KD of MS2 coat protein” value turned out to be 37.5 nM (input ligand: FMN 200 uM) and 20.1 nM (input ligand: none).

On to “CCCGGGUUAGGAUAUUCCUCGUGCAGCUGACAGCCACGGGAGAAGAAGGGACAUGAGGAUCACCCAUGUGAAUA [Eternabot (L2) Solution 47] (Eterna round: R97, puzzle: Exclusion 4)”, for which the “apparent KD of MS2 coat protein” value (input ligand: FMN 200 uM) worked out at 42 nM and the “apparent KD of MS2 coat protein” value (input ligand: none) turned out to be 32.9 nM.

For “CCCUCACAUGAGGAUCACCCAUGUCAGGAUAUCCAAGGCGAUCACCAAAAUAAAGCAAGGAGAAGGGACUUGGC [Enona] (Eterna round: R97, puzzle: Exclusion 1)”, the “apparent KD of MS2 coat protein” value runs as follows: (input ligand: FMN 200 uM) 71.5 nM; (input ligand: none) 41.4 nM.

For “CCCUCACAUGAGGAUCACCCAUGUCAGGAUAUCUAGUCAGAUAGUGUAGCACUAAUGAAGAGAAGGGACGUAUA [Lezagees] (puzzle: Exclusion 1)”, the “apparent KD of MS2 coat protein” value under setting [2] turned out to be 16.9 nM.

In the case of “CCCUCACAUGAGGAUCACCCAUGUCAGGAUAUUCAAAGCGCAAAUGCGCCAAAUGCAGGAAGAAGGGACGUGCC [Bisoar] (Eterna round: R96, puzzle: Exclusion 1)”, the “apparent KD of MS2 coat protein” value is 18.6 nM (input ligand: FMN 200 uM), 10.3 nM under setting [1] and 15 nM (input ligand: none).

Take “CCCUCACAUGAGGAUCACCCAUGUCAGGAUAUUCAAAGCGCAAAUGCGCCAAAUGCAGGAAGAAGGGACGUGCC [Bisoar] (puzzle: Exclusion 1)”: the “apparent KD of MS2 coat protein” value under setting [2] amounted to 13.3 nM.

As to “CCCUCACAUGAGGAUCACCCAUGUCAGGAUAUUCGGCGGUCAAUUGACCGCCUUAAAGGAAGAAGGGACGUAAA [Masore] (puzzle: Exclusion 1)”, the “apparent KD of MS2 coat protein” value under setting [2] was found to be 11.8 nM.

As for “CCCUCACUUGAGGAUCACCCAAGUCAGGAUAUCUCCCACCCGGCAACAACCGGGUGCCAGAGAAGGGACUCAAA [Xemaques] (Eterna round: R97, puzzle: Exclusion 1)”, the “apparent KD of MS2 coat protein” value by setting is: (input ligand: FMN 200 uM) 17.9 nM; (input ligand: none) 17 nM.

In the case of “CCCUCAGUCUAGGAUAUAACAAUCAGAUAUCAGUUAGAAGGAGACACAUGAGGAUCACCCAUGUGGGUCAAUAA [Bearener] (puzzle: Exclusion 6)”, the “apparent KD of MS2 coat protein” value under setting [3] came out at 50.7 nM, the “apparent KD of MS2 coat protein” value under setting [2] stood at 20.2 nM and the “apparent KD of MS2 coat protein” value under setting [4] was determined as 21.3 nM.

As to “CCGAAUAAGCAGGAUAUCGAAUCGGAAACGAUUCGAGAAGGGUUAACAUGAGGAUCACCCAUGUUCCUUAACGG [Mat - Exclusion 6 - Eli Mod - D78] (puzzle: Exclusion 6)”, the “apparent KD of MS2 coat protein” value under setting [2] stood at 19.2 nM.

As to “CCGAGGUAGCGGUCCUAUGACAUGAGGAUCACCCAUGUACCUCGCUACGAGCUUUUUGCUCAUCUUAUAAUUCUCGG [Atriat] (puzzle: Sensor v3, turn-off variant 1)”, the “apparent KD of MS2 coat protein” value is, setting by setting: under setting [3], 20.9 nM; under setting [2], 26.1 nM; under setting [4], 19.2 nM.
